For one substance, Kd results are on record in patent US20070054271A1.

Experiment [1] concerns the target putative CXCL14 receptor (CXCL14-binding cell surface protein(s)) on breast epithelial and breast cancer cells. Nature of the experiment: Scatchard analysis of AP-CXCL14 binding to MDA-MB-231 cells in suspension, bound AP activity; low affinity site.
Experiment [2] has the same target. Description: Scatchard analysis of AP-CXCL14 binding to MDA-MB-231 cells in suspension, bound AP activity; high affinity site.

In general, Kd refers to the constant that tells how readily two partners part at equilibrium. A high value points to lower affinity. For “alkaline phosphatase-CXCL14 (AP-CXCL14) fusion protein, AP located N-terminal of the CXCL14 (from UniProt O95715 35-111) (ligand)”, the values for the Kd in experiment [1] and in experiment [2] were 567 nM and 61 nM, respectively.
